Reference: the supplement of paper PMC11196671
± gives the standard deviation of the averaged measurements.

Key:
[1] = PET hydrolysis product formed (TPA+MHET+BHET, UV-Vis) per mg enzyme (mmol/mg enzyme); higher = more PET depolymerisation activity; extreme values may be limits of the assay; conditions: 24 h
Protocol: (§1)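 Purified PET hydrolases, 2.5 ug enzyme on 3.5 mg amorphous PET film (aFilm) or crystalline PET powder (cryPow) in 0.5 mL of 50 mM buffer (NaCitrate pH 4.5/5.5, NaPhosphate 6.5/7.5, glycine 8.5/9.5) at 60 or 70 C with shaking for 24 h. Total aromatic product by UV-Vis (260/280 nm, blank-subtracted, normalised per mg enzyme) and individual TPA, MHET, BHET concentrations by UHPLC-DAD at 240 nm; duplicate reactions.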

[2] = terephthalic acid (TPA) released, HPLC; higher = more TPA released; extreme values may be limits of the assay; conditions: 24 h
Protocol: as §1

[3] = PET hydrolysis product formed (TPA+MHET+BHET, UV-Vis) per mg enzyme (mmol/mg enzyme); higher = more PET depolymerisation activity; extreme values may be limits of the assay; conditions: 2 h
Protocol: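 Purified PET hydrolases (His-SUMO cleaved, E. coli C41(DE3) small-scale expression), 2.5 ug enzyme on 3.5 mg amorphous PET film (aFilm) or crystalline PET powder (cryPow) in 0.5 mL of 50 mM buffer (NaCitrate pH 4.5/5.5, NaPhosphate 6.5/7.5, glycine 8.5/9.5) at 60 or 70 C with shaking for 2 h. Soluble aromatic products (TPA+MHET+BHET) were quantified by UV-Vis at 260/280 nm, blank-subtracted against the no-enzyme control, and normalised per mg enzyme; duplicate reactions.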

[4] = MHET released, HPLC; higher = more MHET released; extreme values may be limits of the assay; conditions: 24 h
Protocol: as §1

SNPYQRGPNPTRSALTADGPFSVATYTVSRLSVSGFGGGVIYYPTGTSLTFGGIAMSPGYTADASSLAWLGRRLASHGFVVLVINTNSRFDGPDSRASQLSAALNYLRTSDPSAVRARLDANRLAVAGHSMGGGATLRIAEQNPSLKAAIPLTPWHTQKTFNTSVPVLIVGAEADTVAPVSQHAIPFYQNLPSTTPKVYVELCNASHIAPNSNNAAISVYTISWMKLWVDNDTRYRQFLCNVNDPALCDFRTNNRHCQ [LCC-ICCG DAQI]
Conditions | MHET released, [4] [mM] | PET hydrolysis product formed, [1] | PET hydrolysis product formed, [3] | terephthalic acid, [2] [mM]
PET substrate: aFilm, 60 °C, pH 4.5 | 0.0359 ± 0.0049 | 0.0166 ± 0.00087 | 0 | 0.0488 ± 0.0093
PET substrate: aFilm, 60 °C, pH 5.5 | 0.267 ± 0.041 | 0.125 ± 0.026 | 0.02083 ± 0.00018 | 0.279 ± 0.0061
PET substrate: aFilm, 60 °C, pH 6.5 | 0.562 ± 0.17 | 0.232 ± 0.055 | 0.0428 ± 0.0094 | 0.541 ± 0.14
PET substrate: aFilm, 60 °C, pH 7.5 | 3.69 ± 0.81 | 1.37 ± 0.25 | 0.0608 ± 0.021 | 3.26 ± 0.3
PET substrate: aFilm, 60 °C, pH 8.5 | 0.3306 ± 0.0017 | 0.167 ± 0.0061 | 0.0525 ± 0.0036 | 0.517 ± 0.04
PET substrate: aFilm, 60 °C, pH 9.5 | 2.09 ± 0.09 | 0.87 ± 0.012 | 0.0903 ± 0.03 | 1.99 ± 0.35
PET substrate: aFilm, 70 °C, pH 4.5 | 0 | 0 | 0 | 0
PET substrate: aFilm, 70 °C, pH 5.5 | 0.189 ± 0.0027 | 0.0923 ± 0.0019 | 0.0394 ± 0.016 | 0.1646 ± 0.00022
PET substrate: aFilm, 70 °C, pH 6.5 | 0.371 ± 0.049 | 0.205 ± 0.025 | 0.0829 ± 0.0029 | 0.296 ± 0.044
PET substrate: aFilm, 70 °C, pH 7.5 | 4.52 ± 0.83 | 2.08 ± 0.32 | 0.189 ± 0.028 | 2.26 ± 0.43
PET substrate: aFilm, 70 °C, pH 8.5 | 0.211 ± 0.049 | 0.1 ± 0.021 | 0.0593 ± 0.0072 | 0.205 ± 0.037
PET substrate: aFilm, 70 °C, pH 9.5 | 1.54 ± 0.49 | 0.859 ± 0.11 | 0.241 ± 0.025 | 1.45 ± 0.086
PET substrate: cryPow, 60 °C, pH 4.5 | 0.033 ± 0.007 | 0.0113 ± 0.00097 | 0 | 0.0214 ± 0.0007
PET substrate: cryPow, 60 °C, pH 5.5 | 0.189 ± 0.01 | 0.0632 ± 0.0075 | 0.0387 ± 0.017 | 0.0856 ± 0.009
PET substrate: cryPow, 60 °C, pH 6.5 | 0.254 ± 0.0038 | 0.0902 ± 0.0042 | 0.0449 ± 0.022 | 0.0997 ± 0.011
PET substrate: cryPow, 60 °C, pH 7.5 | 0.437 ± 0.021 | 0.173 ± 0.029 | 0.0986 ± 0.013 | 0.216 ± 0.024
PET substrate: cryPow, 60 °C, pH 8.5 | 0.197 ± 0.0089 | 0.0738 ± 0.0022 | 0.0373 ± 0.0043 | 0.103 ± 0.0061
PET substrate: cryPow, 60 °C, pH 9.5 | 0.155 ± 0.028 | 0.1163 ± 0.00055 | 0.0245 ± 0.0021 | 0.441 ± 0.029
PET substrate: cryPow, 70 °C, pH 4.5 | 0 | 0 | 0 | 0
PET substrate: cryPow, 70 °C, pH 5.5 | 0.0777 ± 0.0059 | 0.0244 ± 0.0029 | 0.0166 ± 0.0027 | 0.04158 ± 9.1e-05
PET substrate: cryPow, 70 °C, pH 6.5 | 0.167 ± 0.018 | 0.0648 ± 0.012 | 0.0286 ± 0.0048 | 0.0736 ± 0.0043
PET substrate: cryPow, 70 °C, pH 7.5 | 0.424 ± 0.026 | 0.193 ± 0.02 | 0.0606 ± 0.0025 | 0.401 ± 0.017
PET substrate: cryPow, 70 °C, pH 8.5 | 0.164 ± 0.0033 | 0.0669 ± 0.0013 | 0.0323 ± 0.00033 | 0.0916 ± 0.0065
PET substrate: cryPow, 70 °C, pH 9.5 | 0.0936 ± 0.0087 | 0.132 ± 0.011 | 0.0462 ± 0.0063 | 0.659 ± 0.042
